Assay results taken from US20050221488.

Test system: Spo11 (Saccharomyces cerevisiae)
Assay: cell_activity
Conditions: wild-type Spo11 without Gal4BD; DSBs barely detectable

For GAL2 promoter UASGAL sites, which activity (% DSB frequency) is on record?
The activity (% DSB frequency) was < 0.6.
